This is an account of results in patent US20200317776A1 (published 2020).

Residue numbers refer to the chain shown, from its start.

B1: AL2p-h19 (antibody, human IgG1, V domains shown)
VH: QVQLVQSGAEVKKPGSSVKVSCKASGYAFSSSWMNWVRQAPGQGLEWMGRIYPGDGDTNYAQKFQGRATITADTSTSTAYMELSSLRSEDTAVYYCARLLRNQPGESYAMDYWGQGTLVTVSS
VL: DIVMTQTPLSLSVTPGQPASISCRSSQSLVHSNGYTYLHWYLQKPGQSPQLLIYKVSNRFSGVPDRFSGSGSGTDFTLKISRVEAEDVGVYYCSQSTRVPYTFGQGTKLEIK
notes: humanized, human IgG1; Fab and IgG formats under one id
B2: AL2p-h43 (antibody, human IgG1, V domains shown)
VH: QVQLVQSGAEVKKPGASLKVSCKASGYAFSSSWMNWVRQAPGQRLEWIGRIYPGDGDTNYNGEFRVRATLTADTSASTAYMELSSLRSEDTAVYFCARLLRNQPGESYAMDYWGQGTLVTVSS
VL: B1 VL with I2V
notes: as for B1
B3: AL2p-h25 (antibody, human IgG1, V domains shown)
VH: B2 VH with V20I, R44G, A76T, F95Y, T117A
VL: B1 VL with I2V, V88L, Y92F
notes: as for B1
B4: AL2p-h27 (antibody, human IgG1, V domains shown)
VH: B2 VH with L18V, R44G, A76T
VL: B1 VL with I2V, V88L, Y92F
notes: as for B1
B5: AL2p-h24 (antibody, human IgG1, V domains shown)
VH: B2 VH with K12V, V20I, R44G, G62Q, E63K, R65Q, V66G, A76T, T117A
VL: B1 VL with I2V, V88L, Y92F
notes: as for B1
B6: AL2p-h90 (antibody, human IgG1, V domains shown)
VH: B1 VH with S16A, G44R, M48I, A68V, T76A
VL: DVQMTQSPSSLSASVGDRVTITCRSSQSLVHSNGYTYLHWYQQKPGKSPKLLIYKVSNRFSGVPSRFSGSGSGTDFTLTISSLQPEDFATYYCSQSTRVPYTFGGGTKVEIK
notes: as for B1
B7: AL2p-h32 (antibody, human IgG1, V domains shown)
VH: B2 VH with A16S, L18V, R44G, A76T, S77T
VL: B1 VL with I2V, V88L, Y92F
notes: as for B1
B8: AL2p-h59 (antibody, human IgG1, V domains shown)
VH: B1 VH with S16A, G44R, A68V, A72R, T76A
VL: B1 VL with T7S, S12P, Q17E, Q105G, L109V
notes: as for B1
B9: AL2p-h47 (antibody, human IgG1, V domains shown)
VH: B2 VH with L18V, R44G, I48M, A68V, L70M, A72R, A76T, A79V, F95Y
VL: B1 VL with I2V
notes: as for B1
B10: AL2p-h44 (antibody, human IgG1, V domains shown)
VH: B2 VH with N61A, G62Q, E63K, R65Q, V66G
VL: B1 VL with I2V
notes: as for B1
B11: AL2p-h33 (antibody, human IgG1, V domains shown)
VH: B1 VH with M48I, I70L, S77T, Y95F
VL: B1 VL with I2V, V88L, Y92F
notes: as for B1
B12: AL2p-h34 (antibody, human IgG1, V domains shown)
VH: B1 VH with M48I, Y95F
VL: B1 VL with I2V, V88L, Y92F
notes: as for B1
B13: AL2p-h76 (antibody, human IgG1, V domains shown)
VH: B1 VH with S16A, G44R, M48I, T76A, Y95F
VL: DVVMTQSPDSLAVSLGERATINCRSSQSLVHSNGYTYLHWYQQKPGQSPKLLIYKVSNRFSGVPDRFSGSGSGTDFTLTISSLQAEDVAVYYCSQSTRVPYTFGGGTKVEIK
notes: as for B1
B14: AL2p-h23 (antibody, human IgG1, V domains shown)
VH: B1 VH with S16A, V18L, V20I, M48I, I70L, T117A
VL: B1 VL with I2V, V88L, Y92F
notes: as for B1
B15: AL2p-h30 (antibody, human IgG1, V domains shown)
VH: B1 VH with S16A, A68V, I70M
VL: B1 VL with I2V, V88L, Y92F
notes: as for B1
B16: AL2p-h42 (antibody, human IgG1, V domains shown)
VH: B1 VH with S16A, G44R, A68V, A72R, T76A
VL: B1 VL with I2V
notes: as for B1
B17: AL2p-h22 (antibody, human IgG1, V domains shown)
VH: B1 VH with S16A, M48I, A68V, I70M, A79V
VL: B1 VL with I2V, V88L, Y92F
notes: as for B1
B18: AL2p-h21 (antibody, human IgG1, V domains shown)
VH: B1 VH with S16A, A68V, I70M, A72R, A79V
VL: B1 VL with I2V, V88L, Y92F
notes: as for B1
B19: AL2p-h35 (antibody, human IgG1, V domains shown)
VH: B1 VH
VL: B1 VL with I2V, V88L, Y92F
notes: as for B1
B20: AL2p-h26 (antibody, human IgG1, V domains shown)
VH: B1 VH with S16A, G44R, M48I, A68V, T76A
VL: B1 VL with I2V, V88L, Y92F
notes: as for B1

human TREM2/DAP12 fusion protein, sequence (O43914 other isoform, or with tags, fused parts or gaps limits assumed): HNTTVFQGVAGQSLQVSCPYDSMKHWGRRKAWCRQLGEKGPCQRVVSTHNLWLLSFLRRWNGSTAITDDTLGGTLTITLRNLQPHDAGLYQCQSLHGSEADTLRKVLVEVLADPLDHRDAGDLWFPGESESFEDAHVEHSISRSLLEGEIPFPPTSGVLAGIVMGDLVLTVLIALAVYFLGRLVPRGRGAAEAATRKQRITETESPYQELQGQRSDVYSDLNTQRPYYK

The first assay deals with T1, human TREM2 expressed on cells (human, UniProt Q9NZC2 19-230).
T1 construct: BW5147.G.1.4 cells stably expressing human TREM2 together with Dap12, or endogenous TREM2 of primary human myeloid cells; also called huT2 BW; hTREM2 expressing cell line
T1 sequence: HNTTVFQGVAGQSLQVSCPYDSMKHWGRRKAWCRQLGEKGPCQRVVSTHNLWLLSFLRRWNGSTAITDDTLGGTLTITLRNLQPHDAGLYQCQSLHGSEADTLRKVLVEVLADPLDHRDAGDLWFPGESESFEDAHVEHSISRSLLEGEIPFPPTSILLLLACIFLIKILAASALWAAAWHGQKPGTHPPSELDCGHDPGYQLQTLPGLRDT
Kind of assay: FACS, hTREM2 BW cells. As to the method:
To examine cell binding of anti-TREM2 antibodies, recombinant, human TREM2-expressing BW5147.G.1.4 cells (ATCC® TIB48™) were established by stably expressing either mouse TREM2 or human TREM2 together with Dap12 using viral infection. Cells were harvested by scraping, washed in PBS, counted and plated on 96-well U bottom plates at 1)(10⁵ cells/well. The plates were spun at 1,400 rpm for 3 minutes and primary anti-TREM2 or control antibodies were added in FACS buffer (PBS H2% FBS) and incubated on ice for one hour. Cells were subsequently centrifuged as before and washed thrice with FACS buffer. Cells were then incubated with anti-human PE conjugated secondary antibody (BD Biosciences) in FACS buffer for 30 minutes on ice. Cells were again washed thrice with FACS buffer and analyzed on a BD FACS Canto. Binding was measured as mean fluorescence intensity in the APC channel.
With B1, the “cell binding (FOB)” value was determined as 87 FOB.

Take B2: the “cell binding (FOB)” value was determined as 91 FOB.

Turning to B3, the “cell binding (FOB)” value amounted to 90 FOB.

Regarding B4, the “cell binding (FOB)” value was determined as 78 FOB.

With B5, the “cell binding (FOB)” value was determined as 69 FOB.

Take B6: the “cell binding (FOB)” value was determined as 126 FOB.

As for B7, the “cell binding (FOB)” value is 81 FOB.

On to B8, for which the “cell binding (FOB)” value turned out to be 69 FOB.

On to B9, for which the “cell binding (FOB)” value stood at 93 FOB.

With B10, the “cell binding (FOB)” value stood at 80 FOB.

Turning to B11, the “cell binding (FOB)” value amounted to 74 FOB.

In the case of B12, the “cell binding (FOB)” value is 84 FOB.

Turning to B13, the “cell binding (FOB)” value is 86 FOB.

Regarding B14, the “cell binding (FOB)” value was determined as 76 FOB.

For B15, the “cell binding (FOB)” value was 88 FOB.

Regarding B16, the “cell binding (FOB)” value amounted to 79 FOB.

In the case of B17, the “cell binding (FOB)” value came to 61 FOB.

B18: the “cell binding (FOB)” value was 76 FOB.

In the case of B19, the “cell binding (FOB)” value stood at 69 FOB.

B20: the “cell binding (FOB)” value came out at 78 FOB.

Another assay concerns the target human TREM2/DAP12 fusion protein (human, UniProt O43914 41-113, limits assumed). The assay is described as follows: cell-based or functional assay.
Consider B1, for which the “Soluble luciferase activation at 10 µg/ml Fold over control” value was 4.97 fold over control.

Turning to B2, the “Soluble luciferase activation at 10 µg/ml Fold over control” value was determined as 8.65 fold over control.

In the case of B3, the “Soluble luciferase activation at 10 µg/ml Fold over control” value worked out at 7.45 fold over control.

As to B4, the “Soluble luciferase activation at 10 µg/ml Fold over control” value came out at 7.23 fold over control.

Regarding B5, the “Soluble luciferase activation at 10 µg/ml Fold over control” value worked out at 4.36 fold over control.

For B6, the “Soluble luciferase activation at 10 µg/ml Fold over control” value stood at 4.35 fold over control.

For the molecule B7, the “Soluble luciferase activation at 10 µg/ml Fold over control” value came to 5.6 fold over control.

Take B8: the “Soluble luciferase activation at 10 µg/ml Fold over control” value is 7.06 fold over control.

Consider B9, for which the “Soluble luciferase activation at 10 µg/ml Fold over control” value came out at 9.28 fold over control.

Consider B10, for which the “Soluble luciferase activation at 10 µg/ml Fold over control” value came to 7.29 fold over control.

Turning to B11, the “Soluble luciferase activation at 10 µg/ml Fold over control” value was 6.21 fold over control.

Regarding B12, the “Soluble luciferase activation at 10 µg/ml Fold over control” value worked out at 6.92 fold over control.

On to B13, for which the “Soluble luciferase activation at 10 µg/ml Fold over control” value stood at 6.57 fold over control.

As to B14, the “Soluble luciferase activation at 10 µg/ml Fold over control” value turned out to be 5.38 fold over control.

In the case of B15, the “Soluble luciferase activation at 10 µg/ml Fold over control” value was determined as 6.01 fold over control.

Regarding B16, the “Soluble luciferase activation at 10 µg/ml Fold over control” value is 9.29 fold over control.

For B17, the “Soluble luciferase activation at 10 µg/ml Fold over control” value turned out to be 5 fold over control.

As for B18, the “Soluble luciferase activation at 10 µg/ml Fold over control” value worked out at 6.28 fold over control.

Turning to B19, the “Soluble luciferase activation at 10 µg/ml Fold over control” value was 6.81 fold over control.

B20: the “Soluble luciferase activation at 10 µg/ml Fold over control” value was determined as 7.25 fold over control.

The target of another assay is T2, human TREM2 Fc fusion (entire TREM2 ECD; only one Fc arm fused to TREM2) (human, UniProt Q9NZC2 19-174).
T2 construct: also called huTREM2-Fc; recombinant hTREM2
T2 sequence: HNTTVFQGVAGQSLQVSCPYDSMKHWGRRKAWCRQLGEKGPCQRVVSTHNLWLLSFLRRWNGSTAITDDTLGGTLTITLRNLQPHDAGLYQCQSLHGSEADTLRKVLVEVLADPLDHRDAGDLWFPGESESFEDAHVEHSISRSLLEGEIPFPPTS
Kind of assay: BLI, Fab, monovalent. The procedure: Briefly, IgG's were loaded on-line onto AHQ sensors. Sensors were equilibrated off-line in assay buffer for 30 minutes and then monitored on-line for 60 seconds for baseline establishment. For avid binding measurement, sensors with loaded IgGs were exposed to 100 nM antigen (human TREM2 Fc fusion using the entire TREM2 ECD; only one Fc arm was fused to TREM2) for 3 minutes, afterwards they were transferred to assay buffer for 3 minutes for off-rate measurement. Monovalent binding measurements were obtained by loading human TREM2 Fe fusion antigens to AHQ sensor and followed by exposure to 100 nM TREM2 antibody Fab. Kinetics data were fit using a 1:1 binding model in the data analysis software provided by ForteBio. Assay was run at room temperature (25° C.).
For orientation: Kd means the equilibrium constant for the complex coming apart. A high value points to lower affinity. B1 returned a Kd of 193 nM.

B2 displayed a dissociation constant (Kd) of 134 nM.

Turning to B3, the equilibrium dissociation constant (Kd) worked out at 153 nM.

Take B4: the equilibrium dissociation constant (Kd) turned out to be 120 nM.

Molecule B5 gave a Kd of 1150 nM.

The molecule B6 had a dissociation constant Kd of 61.2 nM.

The molecule B7 returned a Kd of 144 nM.

On to B8, for which the dissociation constant (Kd) amounted to 130 nM.

In turn, B9 returned an equilibrium dissociation constant (Kd) of 161 nM.

For B10, the Kd was found to be 180 nM.

On to B11, for which the Kd is 225 nM. The Kd values of the last two molecules are within 1.5-fold of each other.

The molecule B12 yielded a Kd of 142 nM.

In turn, B13 returned a Kd of 83 nM.

Consider B14, for which the Kd is 334 nM.

For the molecule B15, the affinity, expressed as Kd, was 181 nM.

B16 had a Kd of 141 nM. This Kd and that of the molecule before are within 1.5-fold of each other.

On to B17, for which the dissociation constant (Kd) was 325 nM.

B18 returned an equilibrium dissociation constant (Kd) of 137 nM.

For B19, the affinity, expressed as Kd, was 127 nM. The Kd values of the last two molecules are within 1.5-fold of each other.

Regarding B20, the Kd came out at 95.3 nM.
